These results are taken from PMC3639042 (Molecular Biology of the Cell, 2013).

The target in one test is T1, Hof1-4E–3HA (budding yeast, UniProt Q05080 1-669, S313E | S421E | S533E | S563E).
T1 sequence (looked up): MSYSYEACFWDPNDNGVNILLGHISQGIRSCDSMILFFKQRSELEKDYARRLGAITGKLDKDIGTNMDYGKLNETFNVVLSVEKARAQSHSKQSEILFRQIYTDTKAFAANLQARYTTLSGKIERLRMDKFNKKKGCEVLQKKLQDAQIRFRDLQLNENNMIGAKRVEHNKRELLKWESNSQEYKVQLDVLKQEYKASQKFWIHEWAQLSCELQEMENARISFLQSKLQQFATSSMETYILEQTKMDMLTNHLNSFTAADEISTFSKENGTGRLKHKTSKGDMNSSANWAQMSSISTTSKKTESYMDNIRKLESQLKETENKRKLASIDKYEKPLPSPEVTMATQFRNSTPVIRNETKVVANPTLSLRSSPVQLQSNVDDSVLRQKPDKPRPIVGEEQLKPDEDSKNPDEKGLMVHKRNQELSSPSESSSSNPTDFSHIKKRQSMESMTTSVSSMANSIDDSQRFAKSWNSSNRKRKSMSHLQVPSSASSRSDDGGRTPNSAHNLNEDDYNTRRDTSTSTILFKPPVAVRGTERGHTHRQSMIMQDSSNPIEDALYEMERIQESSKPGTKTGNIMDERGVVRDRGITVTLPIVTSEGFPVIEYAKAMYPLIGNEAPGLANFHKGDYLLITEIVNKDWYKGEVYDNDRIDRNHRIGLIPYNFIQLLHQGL
Kind of test: co-IP.

Test [1] addresses septin complex (6His-Cdc12-Cdc3-Cdc10-Cdc11) (budding yeast, UniProt P32468 1-407; P32457 1-520; P25342 1-322; P32458 1-415). As to the kind of experiment: pull-down.

Chain of septin complex (6His-Cdc12-Cdc3-Cdc10-Cdc11) (P32468 whole entry, chain 1 of 3): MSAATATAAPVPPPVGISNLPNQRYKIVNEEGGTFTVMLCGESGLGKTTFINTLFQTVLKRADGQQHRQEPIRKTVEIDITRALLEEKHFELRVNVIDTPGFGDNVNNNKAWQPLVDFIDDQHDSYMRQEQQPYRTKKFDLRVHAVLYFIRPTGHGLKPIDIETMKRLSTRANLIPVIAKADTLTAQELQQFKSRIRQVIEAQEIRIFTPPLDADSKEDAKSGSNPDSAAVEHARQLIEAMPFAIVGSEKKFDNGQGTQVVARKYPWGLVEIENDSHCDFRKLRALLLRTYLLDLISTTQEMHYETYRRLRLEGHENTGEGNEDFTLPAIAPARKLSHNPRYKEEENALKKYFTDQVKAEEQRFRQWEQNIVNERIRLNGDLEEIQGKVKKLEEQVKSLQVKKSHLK
Chain of septin complex (6His-Cdc12-Cdc3-Cdc10-Cdc11) (P32457 whole entry, chain 2 of 3): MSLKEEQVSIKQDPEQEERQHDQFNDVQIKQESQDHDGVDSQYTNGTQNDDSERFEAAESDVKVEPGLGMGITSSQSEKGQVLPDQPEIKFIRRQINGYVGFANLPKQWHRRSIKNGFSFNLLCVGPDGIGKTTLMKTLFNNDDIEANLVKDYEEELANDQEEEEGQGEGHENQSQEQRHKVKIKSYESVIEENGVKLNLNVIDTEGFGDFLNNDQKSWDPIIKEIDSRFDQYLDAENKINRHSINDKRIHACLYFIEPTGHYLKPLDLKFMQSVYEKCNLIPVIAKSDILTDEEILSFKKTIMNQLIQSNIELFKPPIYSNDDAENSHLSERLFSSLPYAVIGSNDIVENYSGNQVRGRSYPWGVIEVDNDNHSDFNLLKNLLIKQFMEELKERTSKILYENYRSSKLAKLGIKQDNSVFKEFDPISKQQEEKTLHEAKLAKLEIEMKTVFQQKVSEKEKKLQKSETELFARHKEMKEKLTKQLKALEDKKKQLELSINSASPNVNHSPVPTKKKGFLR
Chain of septin complex (6His-Cdc12-Cdc3-Cdc10-Cdc11) (P32458 whole entry, chain 4 of 3): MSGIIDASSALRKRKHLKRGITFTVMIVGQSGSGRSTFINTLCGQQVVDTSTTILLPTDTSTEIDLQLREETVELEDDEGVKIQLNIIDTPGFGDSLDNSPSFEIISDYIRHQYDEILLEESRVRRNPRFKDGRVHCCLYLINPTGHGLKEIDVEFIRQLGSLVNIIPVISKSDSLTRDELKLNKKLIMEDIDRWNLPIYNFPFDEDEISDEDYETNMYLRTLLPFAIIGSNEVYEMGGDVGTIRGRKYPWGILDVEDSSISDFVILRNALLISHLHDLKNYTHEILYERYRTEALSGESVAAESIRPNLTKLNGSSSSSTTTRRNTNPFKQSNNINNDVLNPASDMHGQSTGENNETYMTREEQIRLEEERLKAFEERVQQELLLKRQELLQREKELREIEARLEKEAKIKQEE

B1: Cdc10-TAP (natural protein, budding yeast, UniProt P25342 1-322, looked up)
chain: MDPLSSVQPASYVGFDTITNQIEHRLLKKGFQFNIMVVGQSGLGKSTLINTLFASHLIDSATGDDISALPVTKTTEMKISTHTLVEDRVRLNINVIDTPGFGDFIDNSKAWEPIVKYIKEQHSQYLRKELTAQRERFITDTRVHAILYFLQPNGKELSRLDVEALKRLTEIANVIPVIGKSDTLTLDERTEFRELIQNEFEKYNFKIYPYDSEELTDEELELNRSVRSIIPFAVVGSENEIEINGETFRGRKTRWSAINVEDINQCDFVYLREFLIRTHLQDLIETTSYIHYEGFRARQLIALKENANSRSSAHMSSNAIQR
Consider B1, for which the “fold less coimmunoprecipitated than with Hof1-3HA” value with Hof1-4E–3HA was 2.5 fold.

B2: GST-HOF1-SID (aa 200–355) (domain or fragment, budding yeast, UniProt Q05080 200-355, looked up)
chain: KFWIHEWAQLSCELQEMENARISFLQSKLQQFATSSMETYILEQTKMDMLTNHLNSFTAADEISTFSKENGTGRLKHKTSKGDMNSSANWAQMSSISTTSKKTESYMDNIRKLSSQLKETENKRKLASIDKYEKPLPSPEVTMATQFRNSTPVIRN
B2: in test [1], the binding result was “binds”.
